Laboratory results published in paper doi:10.1101/2022.04.06.487260, “The purified recombinant FAT domain of the Focal Adhesion Kinase does not bind directly to recombinant Talin or MBD2 in vitro” (bioRxiv, 2022).

Target: T1, Talin F2F3 (206-405, C336S) (UniProt Q9Y490 206-405, C336S)
T1 construct: Talin (head 1-433, rod 434-2541), F2 and F3 lobes of the FERM domain, residues 206-405; gene codon optimised and synthesised; the purification (beads before and after cleavage, elution as a 25 kDa protein) describes the cleaved protein; also called Talin206-405; Talin F2F3 head
T1 sequence (Q9Y490 206-405 C336S): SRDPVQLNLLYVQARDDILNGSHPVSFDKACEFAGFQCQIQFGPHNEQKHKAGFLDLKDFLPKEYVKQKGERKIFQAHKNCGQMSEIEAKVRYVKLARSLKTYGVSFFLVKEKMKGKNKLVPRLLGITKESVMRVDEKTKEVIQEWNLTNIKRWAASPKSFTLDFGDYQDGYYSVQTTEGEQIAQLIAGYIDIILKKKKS
Assay: NMR titration; 1H-15N HSQC; 90 μM 15N-labelled FAT incubated with Talin at molar ratios of 1:0.5, 1:1 and 1:2; 25 °C
Conditions: both partners purified

B1: FAT domain of human FAK (892-1052) (domain or fragment, UniProt Q05397 892-1052, looked up)
chain: SSPADSYNEGVKLQPQEISPPPTANLDRSNDKVYENVTGLVKAVIEMSSKIQPAPPEEYVPMVKEVGLALRTLLATVDETIPLLPASTHREIEMAQKLLNSDLGELINKMKLAQQYVMTSLQQEYKKQMLTAAHALAVDAKNLLDVIDQARLKMLGQTRPH
notes: focal adhesion kinase (FAK), human, residues 892-1052: FAT domain with N-terminal residues preceding the four-helix bundle (922-1049); Expressed as GST fusion from pGex-6P2 and released from the beads with 3C protease; 15N-labelled (M9 medium with 15N-NH4Cl) for the NMR experiments; also called FAT892-1052; FAK FAT; source: E. coli BL21, purified (Glutathione Sepharose 4B, 3C protease, Superdex …)
Kd: > 100 µM
